In patent US20210179716A1 (Pfizer, published 2021):
Where a chain is given by its changes, count along the chain named. Read-outs that look alike come from different tables or passages of the source. Blank lines part the entries; values can stand above or below the binder they belong to.

Assays:
cynomolgus CD47 protein [1] = biological target: T1, cynomolgus CD47 protein (cynomolgus monkey, UniProt A0A2K5X523 19-139); assay: KD; method not stated
T1 construct: also called cyCD47; Cyno CD47

cynomolgus CD47 protein [2] = biological target: T1, cynomolgus CD47 protein; assay: half-life of the complex; method not stated
mouse CD47 protein = biological target: T2, mouse CD47 protein (mouse, UniProt Q61735 19-140, limits assumed); assay: column 'Cross-react with mouse'; method not stated
T2 sequence (looked up): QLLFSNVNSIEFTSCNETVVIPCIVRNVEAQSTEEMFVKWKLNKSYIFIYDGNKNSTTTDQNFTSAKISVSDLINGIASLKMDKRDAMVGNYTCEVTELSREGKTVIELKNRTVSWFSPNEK

cynomolgus CD47 protein [3] = biological target: T1, cynomolgus CD47 protein; assay: KD; method not stated; remark: listed apart in the source
cynomolgus CD47 protein [4] = biological target: T1, cynomolgus CD47 protein; assay: KD; method not stated; remark: listed apart in the source
human CD47 protein [5] = biological target: T3, human CD47 protein (human, UniProt Q08722 19-139, limits assumed); assay: KD; method not stated
T3 construct: Soluble protein used for the KD measurements; construct not described; also called hCD47; CD47 (human)
T3 sequence (Q08722 19-139 limits assumed): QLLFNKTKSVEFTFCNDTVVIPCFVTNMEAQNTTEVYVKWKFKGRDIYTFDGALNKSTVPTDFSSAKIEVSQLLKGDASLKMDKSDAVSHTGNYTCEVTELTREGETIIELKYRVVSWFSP

human CD47 protein [6] = biological target: T3, human CD47 protein; assay: half-life of the complex; method not stated
human CD47 protein [7] = biological target: T3, human CD47 protein; assay: KD; method not stated; remark: listed apart in the source
[8] = biological target: T4, human CD47 on the cell surface (human); assay: flow cytometry, CHO cells stably overexpressing human CD47; positive control
T4 construct: whole, on cells; also called CHO-hCD47; CD47 on HT1080 tumor cells

cynomolgus CD47 protein [9] = biological target: T1, cynomolgus CD47 protein; assay: half-life of the complex; method not stated; remark: listed apart in the source
human CD47 protein [10] = biological target: T3, human CD47 protein; assay: half-life of the complex; method not stated; remark: listed apart in the source
mouse PD-L1 protein [11] = biological target: T5, mouse PD-L1 protein (mouse, UniProt Q9EP73 19-238); assay: column 'Cross with mouse?'; method not stated
T5 construct: also called mPD-L1
T5 sequence (Q9EP73 19-238 limits assumed): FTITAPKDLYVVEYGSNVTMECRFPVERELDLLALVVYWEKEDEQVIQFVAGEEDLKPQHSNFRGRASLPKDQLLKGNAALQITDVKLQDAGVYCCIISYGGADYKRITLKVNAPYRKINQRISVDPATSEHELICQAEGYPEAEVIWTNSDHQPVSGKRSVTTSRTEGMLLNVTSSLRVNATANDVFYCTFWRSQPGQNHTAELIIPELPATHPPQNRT

human PD-L1 protein [12] = biological target: T6, human PD-L1 protein (human, UniProt Q9NZQ7 19-238); assay: half-life of the complex; method not stated
T6 construct: Soluble protein used for the KD measurements; construct not described; also called hPD-L1; CD274
T6 sequence (Q9NZQ7 19-238 limits assumed): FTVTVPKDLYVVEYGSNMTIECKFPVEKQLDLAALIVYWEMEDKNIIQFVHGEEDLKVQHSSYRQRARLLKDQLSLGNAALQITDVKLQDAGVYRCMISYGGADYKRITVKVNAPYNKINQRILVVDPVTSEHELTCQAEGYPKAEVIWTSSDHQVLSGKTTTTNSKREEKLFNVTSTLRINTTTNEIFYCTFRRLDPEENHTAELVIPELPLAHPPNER

cynomolgus PD-L1 protein [13] = biological target: T7, cynomolgus PD-L1 protein (cynomolgus monkey, UniProt G7PSE7 19-238); assay: half-life of the complex; method not stated
T7 construct: also called cyPD-L1; Cyno PD-L1
T7 sequence (G7PSE7 entry or part of it): as the sequence (Q9NZQ7 19-238 limits assumed) above, with A33T, A34S, S62N, R68Q, Q82R, F173L, T185A, T192I, H215L counted along it

human PD-L1 protein [14] = biological target: T6, human PD-L1 protein; assay: KD; method not stated
cynomolgus PD-L1 protein [15] = biological target: T7, cynomolgus PD-L1 protein; assay: KD; method not stated
human PD-L1 protein [16] = biological target: T6, human PD-L1 protein; assay: KD; method not stated; remark: listed apart in the source
cynomolgus PD-L1 protein [17] = biological target: T7, cynomolgus PD-L1 protein; assay: KD; method not stated; remark: listed apart in the source
mouse PD-L1 protein [18] = biological target: T5, mouse PD-L1 protein; assay: KD; method not stated
human PD-L1 protein [19] = biological target: T6, human PD-L1 protein; assay: KD; method not stated; remark: listed apart in the source
cynomolgus PD-L1 protein [20] = biological target: T7, cynomolgus PD-L1 protein; assay: KD; method not stated; remark: listed apart in the source
human PD-L1 protein [21] = biological target: T6, human PD-L1 protein; assay: half-life of the complex; method not stated; remark: listed apart in the source
cynomolgus PD-L1 protein [22] = biological target: T7, cynomolgus PD-L1 protein; assay: half-life of the complex; method not stated; remark: listed apart in the source

B1: CD47_P01A11_parent (antibody, V domains shown)
VH: QVQLVQSGAEVKKPGSSVKVSCKASGYTFTNYAISWVRQAPGQGLEWMGGISPLFGTANYAQKFQGRVTITADESTSTAYMELSSLRSEDTAVYYCARDGGRSSDVGWYVGAMDVWGQGTLVTVSS
VL: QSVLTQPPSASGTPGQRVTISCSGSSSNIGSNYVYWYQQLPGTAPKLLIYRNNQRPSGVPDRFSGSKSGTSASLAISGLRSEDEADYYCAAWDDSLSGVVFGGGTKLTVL
notes: also called P01A11_wt
- Kd (cynomolgus CD47 protein [1]): 1.3 nM
- T1/2 (cynomolgus CD47 protein [2]): 21.1 min
- Kd (mouse CD47 protein): > 6800 nM
- Kd (cynomolgus CD47 protein [3]): 1.02 nM

B6: PDL1_P06B05_parent (antibody, V domains shown)
VH: EVQLVESGGGLVKPGGSLRLSCAASGFTFSNAWMNWVRQAPGKGLEWVGRIKTKADGGTTDYAAPVKGRFTISRDDSKNTLYLQMNSLKTEDTAVYYCTTDPGSYWDSVYGGMDYWGQGTLVTVSS
VL: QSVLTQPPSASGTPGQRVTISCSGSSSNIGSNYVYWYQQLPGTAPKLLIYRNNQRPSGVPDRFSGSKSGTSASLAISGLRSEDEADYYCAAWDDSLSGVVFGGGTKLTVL
- Kd (mouse PD-L1 protein [11]): 207 nM
- T1/2 (human PD-L1 protein [12]): 28.2 min
- T1/2 (cynomolgus PD-L1 protein [13]): 10.2 min
- Kd (human PD-L1 protein [14]): 4.42 nM
- Kd (cynomolgus PD-L1 protein [15]): 8.07 nM
- Kd (human PD-L1 protein [16]): 2.36 nM
- Kd (cynomolgus PD-L1 protein [17]): 3.11 nM

B7: P06B05_G112A (antibody, V domains shown)
VH: B6 VH with G112A
VL: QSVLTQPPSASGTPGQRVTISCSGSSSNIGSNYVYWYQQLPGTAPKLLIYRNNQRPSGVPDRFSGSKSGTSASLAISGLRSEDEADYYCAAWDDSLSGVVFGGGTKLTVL
notes: Variant of P06B05
- Kd (human PD-L1 protein [16]): 3.71 nM
- Kd (cynomolgus PD-L1 protein [17]): 3.72 nM
- Kd (mouse PD-L1 protein [18]): 131 nM

B9: P06B05_D56E_G57A (antibody, V domains shown)
VH: B6 VH with D56E, G57A
VL: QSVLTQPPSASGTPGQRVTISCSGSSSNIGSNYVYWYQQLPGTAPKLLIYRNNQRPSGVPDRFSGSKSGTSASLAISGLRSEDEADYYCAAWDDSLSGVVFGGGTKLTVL
notes: Variant of P06B05
- Kd (human PD-L1 protein [16]): 95.5 nM
- Kd (cynomolgus PD-L1 protein [17]): 92.2 nM
- Kd (mouse PD-L1 protein [18]): > 1500 nM

B12: P06B05_G112S (antibody, V domains shown)
VH: B6 VH with G112S
VL: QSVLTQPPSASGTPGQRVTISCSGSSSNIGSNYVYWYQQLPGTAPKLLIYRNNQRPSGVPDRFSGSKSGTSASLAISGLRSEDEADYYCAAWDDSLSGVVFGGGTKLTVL
notes: Variant of P06B05
- Kd (human PD-L1 protein [16]): 1.69 nM
- Kd (cynomolgus PD-L1 protein [17]): 1.74 nM
- Kd (mouse PD-L1 protein [18]): 77.7 nM

B13: PDL1_P04D09_parent (antibody, V domains shown)
VH: EVQLLESGGGLVQPGGSLRLSCAASGFTFSSYAMSWVRQAPGKGLEWVSAIGVRGGITYYADSVKGRFTISRDNSKNTLYLQMNSLRAEDTAVYYCARERSVGELVGIDWMDHWGQGTLVTVSS
VL: not shown
- Kd (mouse PD-L1 protein [11]): 20.4 nM
- T1/2 (human PD-L1 protein [12]): 43.6 min
- T1/2 (cynomolgus PD-L1 protein [13]): 20.1 min
- Kd (human PD-L1 protein [14]): 0.56 nM
- Kd (cynomolgus PD-L1 protein [15]): 1.15 nM

Results, then the binder that gave them:

- Kd (cynomolgus CD47 protein [4]): 704 nM
- Kd (human CD47 protein [5]): 497 nM
B2: CD47_P01A11_497 (antibody, V domains shown)
VH: B1 VH with Y27G, N31S, L54I, G100A, M113L
VL: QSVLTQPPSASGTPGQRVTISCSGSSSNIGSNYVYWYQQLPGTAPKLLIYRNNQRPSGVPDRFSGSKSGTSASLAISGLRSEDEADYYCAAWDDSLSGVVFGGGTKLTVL
notes: Monospecific antibody

- T1/2 (cynomolgus CD47 protein [2]): 20.2 min
- T1/2 (human CD47 protein [6]): 21.3 min
- Kd (cynomolgus CD47 protein [3]): 2.08 nM
- Kd (human CD47 protein [7]): 1.72 nM
B3: CD47_P01A08_parent (antibody, V domains shown)
VH: B1 VH with T30S, S35T, L54I, V106G, Y109R, V110G, G111A, A112G, V115Y
VL: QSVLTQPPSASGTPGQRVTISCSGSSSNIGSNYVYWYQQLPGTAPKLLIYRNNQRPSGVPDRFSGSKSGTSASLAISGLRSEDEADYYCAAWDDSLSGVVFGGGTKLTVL

- EC50 [8]: 0.98 nM
- Kd (cynomolgus CD47 protein [4]): 105 nM
- Kd (human CD47 protein [5]): 75 nM
- T1/2 (cynomolgus CD47 protein [9]): 0.48 min
- T1/2 (human CD47 protein [10]): 0.49 min
B4: CD47_P01A11_75 (antibody, V domains shown)
VH: B1 VH with T30S, N31S, L54I, G100A, M113I
VL: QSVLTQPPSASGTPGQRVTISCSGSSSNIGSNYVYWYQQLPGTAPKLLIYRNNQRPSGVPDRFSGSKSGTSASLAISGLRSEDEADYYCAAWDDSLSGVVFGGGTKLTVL
notes: Monospecific antibody; also called anti-CD47 antibody P01A11_75

- T1/2 (cynomolgus CD47 protein [2]): 2.52 min
- T1/2 (human CD47 protein [6]): 3.6 min
- Kd (cynomolgus CD47 protein [3]): 9.7 nM
- Kd (human CD47 protein [7]): 6.39 nM
B5: CD47_P14D04_parent (antibody, V domains shown)
VH: EVQLLESGGGLVQPGGSLRLSCAASGFSFSTFTMNWVRQAPGKGLEWVSTISGTGGNTYYADSVKGRFTISRDNSKNTLYLQMNSLRAEDTAVYYCARRRSTVGSNGHSYWFDYWGQGTLVTVSS
VL: not shown

- Kd (human PD-L1 protein [19]): 1.6 nM
- Kd (cynomolgus PD-L1 protein [20]): 1.6 nM
- T1/2 (human PD-L1 protein [21]): 23.4 min
- T1/2 (cynomolgus PD-L1 protein [22]): 23.7 min
B8: PDL1_P06B05_245 (antibody, V domains shown)
VH: B6 VH with S104E
VL: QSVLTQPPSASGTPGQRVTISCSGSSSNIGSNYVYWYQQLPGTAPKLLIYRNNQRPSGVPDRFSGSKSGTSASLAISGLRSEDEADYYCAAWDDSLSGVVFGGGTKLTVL
notes: Monospecific antibody; also called anti-PD-L1 antibody P06B05_245

- Kd (human PD-L1 protein [16]): 0.8 nM
- Kd (cynomolgus PD-L1 protein [17]): 0.45 nM
- Kd (mouse PD-L1 protein [18]): 23.1 nM
B10: P06B05_S104E (antibody, V domains shown)
VH: B6 VH with S104E
VL: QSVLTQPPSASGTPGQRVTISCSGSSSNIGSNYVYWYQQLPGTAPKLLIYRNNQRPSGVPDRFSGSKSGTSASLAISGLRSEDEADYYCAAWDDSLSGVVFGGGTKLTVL
notes: Variant of P06B05

- Kd (human PD-L1 protein [16]): 12.8 nM
- Kd (cynomolgus PD-L1 protein [17]): 6.58 nM
B11: P06B05_Y105H (antibody, V domains shown)
VH: B6 VH with Y105H
VL: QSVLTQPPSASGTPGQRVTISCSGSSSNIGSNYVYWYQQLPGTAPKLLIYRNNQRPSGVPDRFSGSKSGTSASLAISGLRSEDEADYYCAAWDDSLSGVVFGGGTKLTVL
notes: Variant of P06B05

- Kd (human PD-L1 protein [19]): 1.7 nM
- Kd (cynomolgus PD-L1 protein [20]): 1.7 nM
- T1/2 (human PD-L1 protein [21]): 22.2 min
- T1/2 (cynomolgus PD-L1 protein [22]): 23.4 min
B14: PDL1_P04D09_113 (antibody, V domains shown)
VH: B13 VH with W110Q
VL: not shown

- Kd (mouse PD-L1 protein [11]): 113 nM
- T1/2 (human PD-L1 protein [12]): 5.13 min
- T1/2 (cynomolgus PD-L1 protein [13]): 2.79 min
- Kd (human PD-L1 protein [14]): 2.97 nM
- Kd (cynomolgus PD-L1 protein [15]): 5.75 nM
B15: PDL1_P06A09_parent (antibody, V domains shown)
VH: EVQLVESGGGLVKPGGSLRLSCAASGFTFSNAWMNWVRQAPGKGLEWVGRIKSESDGGTTDYAAPVKGRFTISRDDSKNTLYLQMNSLKTEDTAVYYCTTDYRIDDWGYPYPGMDYWGQGTLVTVSS
VL: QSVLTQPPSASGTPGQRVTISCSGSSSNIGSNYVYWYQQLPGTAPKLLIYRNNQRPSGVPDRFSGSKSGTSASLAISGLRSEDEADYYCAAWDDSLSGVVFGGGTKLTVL
